Where “and” joins values, the source holds several entries; their conditions need not be identical. Equal entries are not always repeated. Where no end group is shown, it is not given here. [ ]: non-standard residue; d: D form. αMeW = C[C@](N)(Cc1c[nH]c2ccccc12)C(=O)O; αMeF = C[C@](N)(Cc1ccccc1)C(=O)O; 2Pal = N[C@@H](Cc1ccccn1)C(=O)O; αMeV = CC(C)[C@](C)(N)C(=O)O; αMeS = C[C@](N)(CO)C(=O)O
Columns and labels:
[1] = target: T1, β-catenin (UniProt P35222 134-665, limits assumed, biotinylated in the SPR and plate assays); test: cell-based or functional assay
T1 sequence (looked up): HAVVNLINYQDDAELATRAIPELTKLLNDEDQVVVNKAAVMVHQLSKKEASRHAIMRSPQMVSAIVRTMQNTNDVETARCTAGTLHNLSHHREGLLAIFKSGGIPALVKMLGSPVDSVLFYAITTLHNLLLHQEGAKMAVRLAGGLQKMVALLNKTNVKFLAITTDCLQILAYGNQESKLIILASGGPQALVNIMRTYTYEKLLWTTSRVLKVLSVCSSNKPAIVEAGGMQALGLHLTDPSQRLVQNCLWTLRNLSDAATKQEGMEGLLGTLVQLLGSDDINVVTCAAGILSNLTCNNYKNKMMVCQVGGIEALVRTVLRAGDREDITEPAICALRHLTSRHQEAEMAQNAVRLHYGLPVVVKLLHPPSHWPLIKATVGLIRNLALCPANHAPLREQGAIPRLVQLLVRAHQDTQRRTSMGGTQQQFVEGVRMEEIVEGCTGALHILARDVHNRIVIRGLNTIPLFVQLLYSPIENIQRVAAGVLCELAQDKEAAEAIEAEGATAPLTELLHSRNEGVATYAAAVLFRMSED

[2] = target: T1, β-catenin; test: competitive FP
Procedure, shortened: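 Competitive fluorescence polarization with inhibitor peptide serially diluted from 10 nM to 30 uM; polarization read at 470 nm excitation, 520 nm emission. Experiments performed three times.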

| Binder | Wnt Reporter EC50 [1] | Kd [2] |
| --- | --- | --- |
| H-KMWILISFWG-OH [SEQ ID NO: 122] | > 22.5 µM and ≤ 30 µM | ≤ 0.4 µM |
| H-HMWILISFWG-OH [SEQ ID NO: 123] | ≤ 7.5 µM | ≤ 0.4 µM |
| WFLISFW (HELM PEPTIDE1{[meW].F.L.I.S.F.W}$$$$V2.0; SMILES CC[C@H](C)[C@H](NC(=O)[C@H](CC(C)C)NC(=O)[C@H](Cc1ccccc1)NC(=O)[C@H](Cc1c[nH]c2ccccc12)NC)C(=O)N[C@@H](CO)C(=O)N[C@@H](Cc1ccccc1)C(=O)N[C@@H](Cc1c[nH]c2ccccc12)C(=O)O) [SEQ ID NO: 111] | > 7.5 µM and ≤ 15 µM | > 0.4 µM and ≤ 1 µM |
| WFLISFW (HELM PEPTIDE1{[meW].F.L.I.S.F.W.[am]}$$$$V2.0; SMILES CC[C@H](C)[C@H](NC(=O)[C@H](CC(C)C)NC(=O)[C@H](Cc1ccccc1)NC(=O)[C@H](Cc1c[nH]c2ccccc12)NC)C(=O)N[C@@H](CO)C(=O)N[C@@H](Cc1ccccc1)C(=O)N[C@@H](Cc1c[nH]c2ccccc12)C(N)=O) [SEQ ID NO: 102] | > 15 µM and ≤ 22.5 µM | ≤ 0.4 µM |
| MWFLISFWG-NH2 [SEQ ID NO: 108] | > 7.5 µM and ≤ 15 µM | > 0.4 µM and ≤ 1 µM |
| H-MWFLISSW-OH [SEQ ID NO: 96] | > 7.5 µM and ≤ 15 µM | > 10 µM and ≤ 30 µM |
| H-MWFLICFWG-OH [SEQ ID NO: 42] | ≤ 7.5 µM | ≤ 0.4 µM |
| H-MWILICFWG-OH [SEQ ID NO: 116] | ≤ 7.5 µM | > 0.4 µM and ≤ 1 µM |
| H-KWILISFWG-OH [SEQ ID NO: 125] | > 22.5 µM and ≤ 30 µM | > 0.4 µM and ≤ 1 µM |
| H-WWILISFWG-OH [SEQ ID NO: 127] | > 7.5 µM and ≤ 15 µM | > 0.4 µM and ≤ 1 µM |
| H-MWILISFWG-OH [SEQ ID NO: 43] | ≤ 7.5 µM | > 0.4 µM and ≤ 1 µM |
| H-MWILIC[αMeF]WG-OH [SEQ ID NO: 121] | ≤ 7.5 µM | ≤ 0.4 µM |
| H-MWILIS[αMeF]WG-OH [SEQ ID NO: 128] | > 7.5 µM and ≤ 15 µM | > 0.4 µM and ≤ 1 µM |
| H-HWILISFWG-OH [SEQ ID NO: 126] | ≤ 7.5 µM | ≤ 0.4 µM |
| H-MWFLISFW-OH [SEQ ID NO: 112] | ≤ 7.5 µM | > 0.4 µM and ≤ 1 µM |
| WWESILDEHVQRVWG (HELM PEPTIDE1{W.[meW].E.S.I.L.D.E.H.V.Q.R.V.W.G.[am]}$$$$V2.0; SMILES CC[C@H](C)[C@H](NC(=O)[C@H](CO)NC(=O)[C@H](CCC(=O)O)NC(=O)[C@H](Cc1c[nH]c2ccccc12)N(C)C(=O)[C@@H](N)Cc1c[nH]c2ccccc12)C(=O)N[C@@H](CC(C)C)C(=O)N[C@@H](CC(=O)O)C(=O)N[C@@H](CCC(=O)O)C(=O)N[C@@H](Cc1c[nH]cn1)C(=O)N[C@H](C(=O)N[C@@H](CCC(N)=O)C(=O)N[C@@H](CCCNC(=N)N)C(=O)N[C@H](C(=O)N[C@@H](Cc1c[nH]c2ccccc12)C(=O)NCC(N)=O)C(C)C)C(C)C) [SEQ ID NO: 36] | > 30 µM | ≤ 0.4 µM |
| H-MWESILDEH[αMeV]QRVWG-NH2 [SEQ ID NO: 34] | > 30 µM | ≤ 0.4 µM |
| H-MWE[αMeS]ILDEHVQRVWG-NH2 [SEQ ID NO: 35] | > 30 µM | ≤ 0.4 µM |

The next lines start with the values.

| Wnt Reporter EC50 [1] | Kd [2] | Binder |
| --- | --- | --- |
| > 30 µM | > 0.4 µM and ≤ 1 µM | KMWFLICFWE (HELM PEPTIDE1{[ac].K.M.W.F.L.I.C.F.W.E}$PEPTIDE1,PEPTIDE1,2:R3-11:R3$$$V2.0; SMILES CC[C@H](C)[C@@H]1NC(=O)[C@H](CC(C)C)NC(=O)[C@H](Cc2ccccc2)NC(=O)[C@H](Cc2c[nH]c3ccccc23)NC(=O)[C@H](CCSC)NC(=O)[C@@H](NC(C)=O)CCCCNC(=O)CC[C@@H](C(=O)O)NC(=O)[C@H](Cc2c[nH]c3ccccc23)NC(=O)[C@H](Cc2ccccc2)NC(=O)[C@H](CS)NC1=O) [SEQ ID NO: 186] |
| ≤ 7.5 µM | > 0.4 µM and ≤ 1 µM | MWFLICFW (HELM PEPTIDE1{[ac].M.W.F.L.I.C.F.W.[O=C(O)CCCN[*:1]]}$$$$V2.0; SMILES CC[C@H](C)[C@H](NC(=O)[C@H](CC(C)C)NC(=O)[C@H](Cc1ccccc1)NC(=O)[C@H](Cc1c[nH]c2ccccc12)NC(=O)[C@H](CCSC)NC(C)=O)C(=O)N[C@@H](CS)C(=O)N[C@@H](Cc1ccccc1)C(=O)N[C@@H](Cc1c[nH]c2ccccc12)C(=O)NCCCC(=O)O) [SEQ ID NO: 197] |
| > 7.5 µM and ≤ 15 µM | ≤ 0.4 µM | H-M[αMeW]ILICFWG-OH [SEQ ID NO: 132] |
| > 7.5 µM and ≤ 15 µM | > 0.4 µM and ≤ 1 µM | H-MWFLIC[2Pal]WG-OH [SEQ ID NO: 148] |
| > 7.5 µM and ≤ 15 µM | ≤ 0.4 µM | H-MW[αMeF]LICFWG-OH [SEQ ID NO: 131] |
| > 30 µM | > 0.4 µM and ≤ 1 µM | H-MWILI[αMeS]FWG-OH [SEQ ID NO: 136] |
| > 7.5 µM and ≤ 15 µM | > 0.4 µM and ≤ 1 µM | H-MWFLIQFYG-OH [SEQ ID NO: 149] |
| > 15 µM and ≤ 22.5 µM | > 0.4 µM and ≤ 1 µM | H-MWILI[dT]FWG-OH [SEQ ID NO: 137] |
| ≤ 7.5 µM | > 0.4 µM and ≤ 1 µM | H-MWILISSWG-OH [SEQ ID NO: 129] |
| ≤ 7.5 µM | ≤ 0.4 µM | H-DWFLICFWG-OH [SEQ ID NO: 142] |
| > 15 µM and ≤ 22.5 µM | > 0.4 µM and ≤ 1 µM | H-MWFLIKFYG-OH [SEQ ID NO: 151] |

Source: patent US20260098059A1 (ENDOMET BIOSCIENCES, published 2026)
